B1: Azoarcus group I ribozyme (parent)
chain: GUGCCUUGCGCCGGGAAACCACGCAAGGGAUGGUGUCAAAUUCGGCGAAACCUAAGCGCCCGCCCGGGCGUAUGGCAACGCCGAGCCAAGCUUCGGCGCCUGCGCCGAUGAAGGUGUAGAGACUAGACGGCACCCACCUAAGGCAAACGCUAUGGUGAAGGCAUAGUCCAGGGAGUGGCGAAAGUCACACAAACCGG

Variants of: B1
Test: reverse-splicing fitness (ratio to wild type); higher = more active; in vitro selection; Mg2+ level not given
Procedure, shortened: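 An in vitro group I ribozyme library with randomized positions was T7-transcribed and gel-purified. In triplicate, 10 pmol RNA in EPPS pH 7.5 was reacted with 50 pmoles of a 30-nt RNA substrate for 1 h at 37 °C across several added MgCl2 levels (1–48 mM), then stopped with EDTA. Products were reverse transcribed from a substrate-complementary primer, PCR-amplified and sequenced (HiSeq 4000). Fitness is a variant's read proportion after selection over that before, normalised to wild type.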

Q: With GUGCCUUGCGCCGGGAAACCACGCAAGGGAUGGUGUCAAAUUCGGCGAAACCUAAGCGCCCGCCCGGGCGUAUGGCAACGCAGAGCCAAGCUUCGGCGCCUGCGCCGAUGGAGGUGUAGUGACUAGACGGCACCCACCUAAGGCGAACGGUAUGGUGAAGGCAUAGUCGAGGGAGUGGCGAAAGUCACACAAACCGG [C82A A111G A120U A145G C150G C169G] as the variant, how does the reverse-splicing fitness read?
A: 0.00653

Q: Which reverse-splicing fitness does the source give for GUGCCUUGCGCCGGGAAACCACGCAAGGGAUGGUGUCAAAUUCGGCGAAACCUAAGCGCCCGCCCGGGCGUAUGGCAACGCAGAGCCAAGCUUCGGCGCCUGCGCCGAUGGAGGUGUAGUGACUAGACGGCACCCACCUAAGGCGAACGGUAUGGUGAAGGCAUAGUCUAGGGAGUGGCGAAAGUCACACAAACCGG [C82A A111G A120U A145G C150G C169U] here?
A: 0.00766

Q: Which reverse-splicing fitness does the source give for GUGCCUUGCGCCGGGAAACCACGCAAGGGAUGGUGUCAAAUUCGGCGAAACCUAAGCGCCCGCCCGGGCGUAUGGCAACGCAGAGCCAAGCUUCGGCGCCUGCGCCGAUGGAGGUGUAGUGACUAGACGGCACCCACCUAAGGCGAACGUUAUGGUGAAGGCAUAGUCGAGGGAGCGGCGAAAGUCACACAAACCGG [C82A A111G A120U A145G C150U C169G U176C] here?
A: 0.00643

Q: Which reverse-splicing fitness does the source give for GUGCCUUGCGCCGGGAAACCACGCAAGGGAUGGUGUCAAAUUCGGCGAAACCUAAGCGCCCGCCCGGGCGUAUGGCAACGCAGAGCCAAGCUUCGGCGCCUGCGCCGAUGGAGGUGUAGUGACUAGACGGCACCCACCUAAGGCGAACGUUAUGGUGAAGGCAUAGUCGAGGGAGGGGCGAAAGUCACACAAACCGG [C82A A111G A120U A145G C150U C169G U176G] here?
A: 0.00249

Q: With GUGCCUUGCGCCGGGAAACCACGCAAGGGAUGGUGUCAAAUUCGGCGAAACCUAAGCGCCCGCCCGGGCGUAUGGCAACGCAGAGCCAAGCUUCGGCGCCUGCGCCGAUGGAGGUGUAGUGACUAGACGGCACCCACCUAAGGCGAACGUUAUGGUGAAGGCAUAGUCGAGGGAGAGGCGAAAGUCACACAAACCGG [C82A A111G A120U A145G C150U C169G U176A] as the variant, how does the reverse-splicing fitness read?
A: 0.0115

Q: Which reverse-splicing fitness does the source give for GUGCCUUGCGCCGGGAAACCACGCAAGGGAUGGUGUCAAAUUCGGCGAAACCUAAGCGCCCGCCCGGGCGUAUGGCAACGCAGAGCCAAGCUUCGGCGCCUGCGCCGAUGGAGGUGUAGUGACUAGACGGCACCCACCUAAGGCGAACGUUAUGGUGAAGGCAUAGUCUAGGGAGCGGCGAAAGUCACACAAACCGG [C82A A111G A120U A145G C150U C169U U176C] here?
A: 0.00442

Q: For GUGCCUUGCGCCGGGAAACCACGCAAGGGAUGGUGUCAAAUUCGGCGAAACCUAAGCGCCCGCCCGGGCGUAUGGCAACGCAGAGCCAAGCUUCGGCGCCUGCGCCGAUGGAGGUGUAGUGACUAGACGGCACCCACCUAAGGCGAACGUUAUGGUGAAGGCAUAGUCUAGGGAGGGGCGAAAGUCACACAAACCGG [C82A A111G A120U A145G C150U C169U U176G], which reverse-splicing fitness is on record?
A: 0.00242

Q: Which reverse-splicing fitness does the source give for GUGCCUUGCGCCGGGAAACCACGCAAGGGAUGGUGUCAAAUUCGGCGAAACCUAAGCGCCCGCCCGGGCGUAUGGCAACGCAGAGCCAAGCUUCGGCGCCUGCGCCGAUGGAGGUGUAGUGACUAGACGGCACCCACCUAAGGCGAACGUUAUGGUGAAGGCAUAGUCUAGGGAGAGGCGAAAGUCACACAAACCGG [C82A A111G A120U A145G C150U C169U U176A] here?
A: 0.00523

Q: For GUGCCUUGCGCCGGGAAACCACGCAAGGGAUGGUGUCAAAUUCGGCGAAACCUAAGCGCCCGCCCGGGCGUAUGGCAACGCAGAGCCAAGCUUCGGCGCCUGCGCCGAUGGAGGUGUAGUGACUAGACGGCACCCACCUAAGGCGAACGGUAUGGUGAAGGCAUAGUCUAGGGAGCGGCGAAAGUCACACAAACCGG [C82A A111G A120U A145G C150G C169U U176C], which reverse-splicing fitness is on record?
A: 0.00796

Q: Which reverse-splicing fitness does the source give for GUGCCUUGCGCCGGGAAACCACGCAAGGGAUGGUGUCAAAUUCGGCGAAACCUAAGCGCCCGCCCGGGCGUAUGGCAACGCAGAGCCAAGCUUCGGCGCCUGCGCCGAUGGAGGUGUAGUGACUAGACGGCACCCACCUAAGGCGAACGGUAUGGUGAAGGCAUAGUCUAGGGAGAGGCGAAAGUCACACAAACCGG [C82A A111G A120U A145G C150G C169U U176A] here?
A: 0.00739

Q: For GUGCCUUGCGCCGGGAAACCACGCAAGGGAUGGUGUCAAAUUCGGCGAAACCUAAGCGCCCGCCCGGGCGUAUGGCAACGCAGAGCCAAGCUUCGGCGCCUGCGCCGAUGGAGGUGUAGUGACUAGACGGCACCCACCUAAGGCGAACGGUAUGGUGAAGGCAUAGUCUAGGGAGGGGCGAAAGUCACACAAACCGG [C82A A111G A120U A145G C150G C169U U176G], which reverse-splicing fitness is on record?
A: 0.00328

Q: Which reverse-splicing fitness does the source give for GUGCCUUGCGCCGGGAAACCACGCAAGGGAUGGUGUCAAAUUCGGCGAAACCUAAGCGCCCGCCCGGGCGUAUGGCAACGCAGAGCCAAGCUUCGGCGCCUGCGCCGAUGGAGGUGUAGUGACUAGACGGCACCCACCUAAGGCGAACGUUAUGGUGAAGGCAUAGUCUAGGGAGUGGCGAAAGUCACACAAACCGG [C82A A111G A120U A145G C150U C169U] here?
A: 0.00572

Q: Which reverse-splicing fitness does the source give for GUGCCUUGCGCCGGGAAACCACGCAAGGGAUGGUGUCAAAUUCGGCGAAACCUAAGCGCCCGCCCGGGCGUAUGGCAACGCAGAGCCAAGCUUCGGCGCCUGCGCCGAUGGAGGUGUAGUGACUAGACGGCACCCACCUAAGGCGAACGUUAUGGUGAAGGCAUAGUCAAGGGAGUGGCGAAAGUCACACAAACCGG [C82A A111G A120U A145G C150U C169A] here?
A: 0.00667

Q: Which reverse-splicing fitness does the source give for GUGCCUUGCGCCGGGAAACCACGCAAGGGAUGGUGUCAAAUUCGGCGAAACCUAAGCGCCCGCCCGGGCGUAUGGCAACGCAGAGCCAAGCUUCGGCGCCUGCGCCGAUGGAGGUGUAGUGACUAGACGGCACCCACCUAAGGCGAACGUUAUGGUGAAGGCAUAGUCGAGGGAGUGGCGAAAGUCACACAAACCGG [C82A A111G A120U A145G C150U C169G] here?
A: 0.00703

Q: For GUGCCUUGCGCCGGGAAACCACGCAAGGGAUGGUGUCAAAUUCGGCGAAACCUAAGCGCCCGCCCGGGCGUAUGGCAACGCAGAGCCAAGCUUCGGCGCCUGCGCCGAUGGAGGUGUAGUGACUAGACGGCACCCACCUAAGGCGAACGUUAUGGUGAAGGCAUAGUCAAGGGAGGGGCGAAAGUCACACAAACCGG [C82A A111G A120U A145G C150U C169A U176G], which reverse-splicing fitness is on record?
A: 0.00232
